According to patent US20170218064A1 (Stanford University, published 2017):
Blank lines part the entries; values can stand above or below the binder they belong to.

Molecular target: T1, human neuromedin U (NMU), bioactive processed 25 amino acid form (human, C-terminal amidation (-NH2))
T1 construct: In the serum ELISAs the target is endogenous circulating human NMU; also called human NMU; NMU-25
T1 peptide: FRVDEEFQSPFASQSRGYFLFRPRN
Assay: not described

binding result: binds
B1: anti-NMU monoclonal antibody 2A16 (antibody, V domains shown)
VH: QIQLVQSGPELKKPGETVKISCKASGYTFTKHGMNWMKQAPGKGLKWMGWINTNTGEPTYSEEFKGRFAFSLETSASTAYLQINNLKNEDTATYFCARTGRYGVDYWGKGTSVTVSS
VL: DIQMTQSPSSLSASLGERVSLTCRASQDIGSNLNWIQQEPDGTIKRLIYATSTLDSGVPKRFSGSRSGSDYFLTISSLESEDFVDYYCLQFDSSPLTFGAGTKLELK
notes: Monoclonal antibody from a mouse hybridoma

binding result: binds
B2: anti-NMU monoclonal antibody C578 (antibody, V domains shown)
VH: EVQLQQSGAELVRSGASVKLSCAASGFNIKDYYIHWVKQRPEQGLEWIGWIDPENGDNECAPKFQGKATMTADTSSNTAYLQLTSLTSEDTAVYYCNAGKGDYWGQGTTLTVSS
VL: NIVMTQSPSSLAMSIGQKVTMSCRSSQSLLNSSNQKNYLAWYQQKPGQSPKLLVYFASTRESGVPARFIGSGSGTDFTLTISSVQAEDLADYFCQQHYSTPFTFGSGTKLEIK
notes: as for B1
